Where a chain is given by its changes, count along the chain named.

T1: human interleukin 12 (human, UniProt P29459 23-219; P29460 23-328)
T1 construct: heterodimer of p35 and p40 linked by a disulfide bridge; also called hIL-12; IL-12
T1 sequence (looked up) 1: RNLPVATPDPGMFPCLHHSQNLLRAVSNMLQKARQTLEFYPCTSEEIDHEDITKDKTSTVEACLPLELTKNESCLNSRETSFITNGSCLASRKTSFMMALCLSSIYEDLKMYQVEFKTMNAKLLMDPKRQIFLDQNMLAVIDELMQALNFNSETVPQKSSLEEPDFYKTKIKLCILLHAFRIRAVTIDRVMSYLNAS
T1 sequence (looked up) 2: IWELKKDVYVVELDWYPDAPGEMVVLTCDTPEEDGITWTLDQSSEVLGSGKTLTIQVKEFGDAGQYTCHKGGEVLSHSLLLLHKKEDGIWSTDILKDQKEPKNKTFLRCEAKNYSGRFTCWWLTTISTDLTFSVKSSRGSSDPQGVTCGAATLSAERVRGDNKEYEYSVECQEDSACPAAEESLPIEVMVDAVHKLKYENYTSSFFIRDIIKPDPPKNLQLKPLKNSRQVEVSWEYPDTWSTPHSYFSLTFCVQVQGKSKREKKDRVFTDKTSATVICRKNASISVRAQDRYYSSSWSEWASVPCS

T2: human interleukin 12 (p70 heterodimer of p35 and p40) (human, UniProt P29459 23-219; P29460 23-328)
T2 construct: Recombinant human IL-12; also called hIL-12; IL-12
T2 sequence (looked up) 1: T1 sequence (looked up) 1
T2 sequence (looked up) 2: T1 sequence (looked up) 2

B1: M2 D1 (antibody, V domains shown)
VH: QVQLVQSGGGVVQPGRSLRLSCAASGFTFSSYGMHWVRQAPGKGLEWVAFIRYDGSNKYYADSVKGRFTISRDNSKNTLYLQMKSLRAEDTAVYYCKTHGSHDNWGQGTMVTVSS
VL: SYVLTQPPSVSGTPGQRVTISCSGGRSNIGSNTVKWYQQLPGTAPKLLIYGNDQRPSGVPDRFSGSKSGTSASLAITGVQAEDEADYYCQSYDIRFTGSRVFGTGTKVTVLG
B2: M2 B3 (antibody, V domains shown)
VH: B1 VH
VL: B1 VL with R95G, F96M
B3: C10 (antibody, V domains shown)
VH: B1 VH
VL: B1 VL with I94R, R95G, F96N, T97S, G98P, S99I, R100P, V101T
B4: M2 B1 (antibody, V domains shown)
VH: B1 VH
VL: B1 VL with I94S, R95G, F96L
B5: M2 F1 (antibody, V domains shown)
VH: B1 VH
VL: B1 VL with I94S, R95D, F96V
B6: M2 E2 (antibody, V domains shown)
VH: B1 VH
VL: SYVLTQPPSVSGTPGQRVTISCSGGRSNIGSNTVKWYQQLPGTAPKLLIYGNDQRPSGVPDRFSGSKSGTSASLAITGVQAEDEADYYCQSYDNGFTGSRVFGTGTKVTVL
B7: M2 E6 (antibody, V domains shown)
VH: B1 VH
VL: B1 VL with I94T, R95G, G98K
B8: A8 (antibody, V domains shown)
VH: B1 VH
VL: B6 VL with N94R, F96K, T97S, G98N, S99K, R100M, V101L
B9: C2 (antibody, V domains shown)
VH: B1 VH
VL: B6 VL with N94R, F96L, T97N, G98P, R100A, V101T
B10: 136-9 (antibody, V domains shown)
VH: B1 VH with K97T, N104D
VL: B6 VL with S91T, N94I, G95S, F96E, T97S
B11: M2 D6 (antibody, V domains shown)
VH: B1 VH
VL: B1 VL with I94S, R95G, G98A
B12: M2 H5 (antibody, V domains shown)
VH: B1 VH
VL: B1 VL with I94A, R95G
B13: M2 D2 (antibody, V domains shown)
VH: B1 VH
VL: B1 VL with F96S
B14: M2 A5 (antibody, V domains shown)
VH: B1 VH
VL: B1 VL with R95G, F96S
B15: M2 D4 (antibody, V domains shown)
VH: B1 VH
VL: B1 VL with D93E, I94T, R95S
B16: 43-E3 (antibody, V domains shown)
VH: B1 VH
VL: B1 VL with I94R, R95G, F96S, T97H, G98P, S99A, R100A, V101E
B17: M2 A2 (antibody, V domains shown)
VH: B1 VH
VL: B1 VL with I94R, R95G, F96I, T97H
B18: M2 B6 (antibody, V domains shown)
VH: B1 VH
VL: B6 VL with N94R, F96L, G98A
B19: M2 D3 (antibody, V domains shown)
VH: B1 VH
VL: B1 VL with I94N, F96L
B20: M2 B5 (antibody, V domains shown)
VH: B1 VH
VL: B1 VL with I94S, R95G, F96V
B21: M2 D5 (antibody, V domains shown)
VH: B1 VH
VL: B1 VL with I94S, R95S, F96S
B22: M2 C5 (antibody, V domains shown)
VH: B1 VH
VL: B1 VL with I94T, R95A, F96L
B23: 43-E9 (antibody, V domains shown)
VH: B1 VH
VL: B1 VL with I94R, R95G, F96T, T97I, G98P, R100I, V101E
B24: M2 E1 (antibody, V domains shown)
VH: B1 VH
VL: B1 VL with S91T, I94K, R95G, R100S
B25: B6 (antibody, V domains shown)
VH: B1 VH
VL: B6 VL with N94S, F96S, T97L, G98R, S99R, R100I, V101L
B26: C4 (antibody, V domains shown)
VH: B1 VH
VL: B6 VL with N94R, F96T, T97P, G98N, S99N, R100S, V101F
B27: SEQ ID NO: 477 (Y61, T at L30) (antibody, V domains shown)
VH: B1 VH
VL: B1 VL with S31T, I94R, R95G, F96T, T97H, G98P, S99A, R100L, V101L
B28: SEQ ID NO: 481 (Y61, S at L31) (antibody, V domains shown)
VH: B1 VH
VL: B1 VL with N32S, I94R, R95G, F96T, T97H, G98P, S99A, R100L, V101L
B29: SEQ ID NO: 479 (Y61, D at L31) (antibody, V domains shown)
VH: B1 VH
VL: B1 VL with N32D, I94R, R95G, F96T, T97H, G98P, S99A, R100L, V101L
B30: SEQ ID NO: 484 (Y61, K at L31) (antibody, V domains shown)
VH: B1 VH
VL: B1 VL with N32K, I94R, R95G, F96T, T97H, G98P, S99A, R100L, V101L
B31: SEQ ID NO: 482 (Y61, Y at L31) (antibody, V domains shown)
VH: B1 VH
VL: B1 VL with N32Y, I94R, R95G, F96T, T97H, G98P, S99A, R100L, V101L
B32: SEQ ID NO: 480 (Y61, E at L31) (antibody, V domains shown)
VH: B1 VH
VL: B1 VL with N32E, I94R, R95G, F96T, T97H, G98P, S99A, R100L, V101L
B33: SEQ ID NO: 483 (Y61, H at L31) (antibody, V domains shown)
VH: B1 VH
VL: B1 VL with N32H, I94R, R95G, F96T, T97H, G98P, S99A, R100L, V101L
B34: SEQ ID NO: 478 (Y61, P at L30) (antibody, V domains shown)
VH: B1 VH
VL: B1 VL with S31P, I94R, R95G, F96T, T97H, G98P, S99A, R100L, V101L
B35: SEQ ID NO: 486 (Y61, Q at L31) (antibody, V domains shown)
VH: B1 VH
VL: B1 VL with N32Q, I94R, R95G, F96T, T97H, G98P, S99A, R100L, V101L

The first test has as its target T1, human interleukin 12. Description: SPR (BIAcore). In general terms: In SPR one partner is held on a chip, and binding of the other changes the refractive index at the surface.
With B1, the koff – broadly, the first-order rate constant of dissociation – is 0.0371 s⁻¹.
For B2, the koff was 0.046 s⁻¹.
B3 came in with a koff of 0.0031 s⁻¹.
Same read-out and setting: the result for B4 reads 0.00797 s⁻¹.
The molecule B5 returned a koff of 0.0616 s⁻¹.
Molecule B6 had a koff of 0.0477 s⁻¹.
Molecule B7 showed a koff of 0.00977 s⁻¹.
The same measure, in the same setting: the result for B8 reads 0.00237 s⁻¹; that for B9, 0.00223 s⁻¹; that for B10, 0.0032 s⁻¹.
Turning to B11, the off-rate constant (koff) stood at 0.0501 s⁻¹.
For B12, the koff was 0.0099 s⁻¹.
For the molecule B13, the koff came out at 0.0385 s⁻¹.
B14 registered a koff of 0.0401 s⁻¹.
Still for that read-out and setting: then B15, with 0.0581 s⁻¹.
Regarding B16, the koff was found to be 0.0008 s⁻¹.
The same measure, in the same setting: then B17, with 0.04 s⁻¹; and B18, with 0.0281 s⁻¹.
Still for that read-out and setting: then B19, with 0.0333 s⁻¹.
Turning to B20, the koff was determined as 0.00838 s⁻¹.
Molecule B21 registered a koff of 0.0518 s⁻¹.
For B22, the koff was found to be 0.0471 s⁻¹.
On the same count and under the same terms, then B23, with 0.0008 s⁻¹; and B24, with 0.0532 s⁻¹; and B25, with 0.00758 s⁻¹.
B26 displayed a koff of 0.00323 s⁻¹.

The next test addresses T2, human interleukin 12 (p70 heterodimer …). Description: SPR (BIAcore), off-rate.
Turning to B27, the koff is 0.000226 s⁻¹.
In turn, B28 gave an off-rate (koff) of 0.000392 s⁻¹.
In the case of B29, the koff was determined as 0.00058 s⁻¹. This koff and that of the molecule before are within 1.5-fold of each other.
Consider B30, for which the koff stood at 0.000331 s⁻¹.
Same read-out and setting: the result for B31 reads 0.000357 s⁻¹; that for B32, 0.000384 s⁻¹; that for B33, 0.000315 s⁻¹.
With B34, the koff turned out to be 0.00025 s⁻¹.
Molecule B35 showed a koff of 0.000292 s⁻¹.

Source of the values: patent publication US20120219562A1 (AbbVie / Abbott, published 2012).
